From patent US20200046811

Biological target: T1, Recombinant Human FGF23 (Fibroblast Growth Factor 23) (UniProt Q9GZV9)
T1 sequence: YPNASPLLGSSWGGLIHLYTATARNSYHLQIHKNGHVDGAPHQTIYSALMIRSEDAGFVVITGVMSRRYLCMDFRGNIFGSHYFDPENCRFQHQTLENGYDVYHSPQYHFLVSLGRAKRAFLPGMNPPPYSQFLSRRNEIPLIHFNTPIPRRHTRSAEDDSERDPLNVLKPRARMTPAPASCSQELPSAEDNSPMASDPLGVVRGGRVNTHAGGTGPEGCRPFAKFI

How did the “in vitro proteolysis of FGF23, silver stained SDS-PAGE gel” value turn out when “Recombinant human uPA (urokinase plasminogen activator)” was run?
The value was “smaller fragments are generated on a silver stained SDS-PAGE gel indicating proteolytic cleavage”.
